Molecular target: GltTk_P208R (UniProt Q5JID0)
Test: cryo-EM structure; single-particle cryo-EM of GltTk_P208R in MSP2N2 nanodiscs (E. coli lipids), 20 mM Tris-HCl pH 8.0, 100 mM KCl, with 300 mM NaCl and 100 uM L-Asp added; C3 symmetry imposed

stoichiometry N: 3
Substance: GltTk_P208R (from UniProt Q5JID0 1-430) (natural protein)

Reference: article PMC10066184
